Measurements as given in the RNAGym collection of RNA variant scans (doi:10.1093/nar/gkz1192).

B1: CPEB3 Ribozyme (parent)
chain: UAACAGGGGGCCACAGCAGAAGCGUUCACGUCGCAGCCCCUGUCAGAUUCUGGUGAAUCUGCGAAUUCUGCUGUAUAUCUC

Variants of: B1
Test: self-cleavage, relative activity (ratio to wild type); higher = more cleavage; in vitro, sequencing
How it was run: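 After error-prone PCR and barcoding, CPEB3 ribozyme mutant libraries were transcribed with T7 RNA polymerase at 37°C for 5 hours, then given 15 min with DNase I before an EDTA stop, and they cleaved during both steps. Reverse transcription with template switching preceded Illumina sequencing. Relative activity divides a variant's cleaved/total read fraction by the unmutated ribozyme's. At least 5 reads were required per variant, and three batches were averaged.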

Variant	self-cleavage
U66A U69C	0.26
U66G U80C	0.54
U66G U80A	0.67
A64G A65C	0.31
A64G A65G	0.28
A64G A65U	0.19
U66C A77G	0.4
U66C A77U	0.34
G63C U72A	0.4
G63C U72C	1.14
U66C U76C	0.43
U66C U76A	0.41
U66C U76G	0.39
U66A A75U	0.68
A65G G73A	1.06
A65G G73C	0.74
A65G G73U	1.19
A64C U67C	0.2
A64C U67A	0.19
A65U U76C	0.24
A65U U76A	0.19
U66G U69A	0.47
U66G U69C	0.31
A65G U72G	0.4

Variant	self-cleavage
A65G U72C	0.52
A65G U72A	0.4
A64U G70U	0.26
A64U G70C	0.25
A64U G70A	0.21
A65U U78C	0.18
C62U U67C	0.31
C62U U67A	0.29
A64G C81G	1.03
A64G C81A	1.02
A64G C81U	0.91
C62U C71A	0.26
C62U C71U	0.22
G63U A65G	0.5
G63U A65U	0.51
A65C C81A	0.5
A64G C68A	0.2
A64U A65C	0.13
A64U A65G	0.25
A64U A65U	0.37
A64C U69C	0.4
A64C U69G	0.47
A64G U80G	0.67
A64G U80A	1.03

Variant	self-cleavage
A64G U80C	0.95
A64C U72C	0.48
A64C U72A	0.27
A64U U76C	0.4
A64U U76G	0.24
A64U U76A	0.32
U66C U78A	0.43
U66C U78C	0.36
A65C U80C	0.53
G63C	0.92
G63U	1.09
G63A	0.87
A64C U78C	0.28
G63A G73A	1.34
G63U G70A	0.62
U66G G70A	0.27
A65U U66C	0.38
A64C C81U	0.43
C62U G73U	0.21
C62U G73A	0.16
A64U U72A	0.35
A64U U72G	0.37
A64U U72C	0.5
A64U C71A	0.18

Variant	self-cleavage
G63A A75U	0.84
G63A A75G	0.49
A65G	0.52
A65U	0.33
A65C	0.29
U66C U72C	0.45
U66C U72G	0.46
U66C U72A	0.39
G63U C79U	1.09
A64U C79U	0.39
A64U C79A	0.36
U67A A75U	0.65
U67A A75G	0.54
A65C C79G	0.14
A65C A77G	0.19
A65C U74C	0.3
G63U A64U	0.43
G63U A64G	0.79
A65G C81A	0.48
A65G C81U	0.63
A64C U66C	0.24
C62U U74A	0.32
C62U U74G	0.19
C62U C79G	0.2

Variant	self-cleavage
A65U A75U	0.36
A65U A75G	0.2
A65C U67C	0.23
A64U C68A	0.37
A64G U74G	1.26
A64G U74A	1.2
A64G U74C	1.15
A65U C68A	0.21
A65U C68U	0.31
G63C U74C	1.21
G63C C79A	1.09
A64G U72C	0.91
A64G U72G	0.87
A64G U72A	0.67
A64G A75G	0.71
A64G A75U	1.01
A64G A75C	1.06
G63A U67A	0.31
G63A U67C	0.3
G63U A77G	1.24
A65G A77U	0.55
A65G A77G	0.51
A65G A77C	0.45
A64G U69A	0.38

Variant	self-cleavage
A64G U69G	0.44
A64G U69C	0.41
G63U U72C	1.2
A65C A75G	0.11
A65U A77U	0.25
A65U A77G	0.2
C62U U78C	0.2
C62U U78A	0.28
A65U G73U	0.57
A65U G73A	0.29
A65C U78C	0.15
C62U C68U	0.21
G63A U78A	0.93
G63A U78C	0.82
A65G U80A	0.53
A65G U80C	0.59
A65G U80G	0.66
G63U U78C	0.96
G63U U78A	0.98
A64U G73C	0.67
A64U G73A	0.98
A64C A77G	0.17
A64C A77U	0.25
G63A A65G	0.38

Variant	self-cleavage
U66C C79U	0.39
U66C C79A	0.38
A64U U74C	0.6
A64U U74A	0.51
A64G C71G	0.31
A64G C71U	0.34
G63U U74A	1.29
G63U U74C	1.19
G63U U74G	1.21
G63C U76C	1.03
A65G C79A	0.67
A65G C79G	0.74
A65G U76A	0.48
A65G U76C	0.53
A65G U76G	0.53
A64G A77G	0.84
A64G A77U	1.03
U66C G73U	1.02
U66C G73C	0.58
U66C G73A	0.81
A65U U80C	0.38
A65U U80A	0.15
A65U U80G	0.21
